Columns and labels:
[1] = target: T1, FMRP (full length, iso7) (Homo sapiens, UniProt Q06787-9 Q06787-9:3-605); assay: filter; antisense control in K+
[2] = target: T1, FMRP (full length, iso7); assay: filter; 5-6 nt stem sufficient for high affinity; boundaries mapped by alkaline hydrolysis/filter capture
[3] = target: T2, FMRP C-terminus (distal to KH domains, contains RGG box) (Homo sapiens, UniProt Q06787-9 Q06787-9:402-605); assay: filter; K+; abrogated in Li+; settings: tags: N-terminal T7, C-terminal His (pET21b); label: 32P-UTP; G4
Procedure: To assess whether the RNAs listed in Table 1 bound FMRP in a G-quartet dependent manner, binding in the presence of Li⁺ versus K⁺ was assessed, and mutants in which the Hoogsteen paired Gs were changed to Cs were generated.

[4] = target: T1, FMRP (full length, iso7); assay: filter; no binding detected
[5] = target: T2, FMRP C-terminus (distal to KH domains, …); assay: filter; all sc1 binding activity in C-terminal domain; settings: tags: N-terminal T7, C-terminal His (pET21b); label: 32P-UTP; stem-loop with intramolecular G4
[6] = target: FMRP N-terminus (Homo sapiens, UniProt Q06787-9 Q06787-9:3-218); assay: as above; settings: tags: N-terminal T7, C-terminal His (pET21b); label: 32P-UTP; stem-loop with intramolecular G4
[7] = target: FMRP I304N (KH2 mutant, full length) (Homo sapiens, UniProt Q06787-9 Q06787-9:3-605, I304N); assay: filter; nearly as well as wild-type FMRP
[8] = target: T1, FMRP (full length, iso7); assay: EMSA; 100 nM FMRP; supershifted by anti-FMRP mAb
[9] = target: T1, FMRP (full length, iso7); assay: filter; minimal effect
[10] = target: T1, FMRP (full length, iso7); assay: filter; no effect versus sc1
[11] = target: T1, FMRP (full length, iso7); assay: filter; severe decrease, undetectable

CCUCGGCCUCCUCCUGCCUCCCC (ssRNA) [Sec7-related GEF antisense transcript]
binding result [1]: no binding

GCUGCGGUGUGGAAGGAGUGGCUGGGUUGCGCACC (ssRNA) [sc1 truncated with 5-6 nt stem (boundaries nt 23-57)]
binding result [2]: binds

GGGGAGGCAGGAGGAGGCCGAGG (ssRNA) [Guanine nucleotide exchange factor (KIAA0763) 3'UTR site]
binding result [3]: binds

GUGGAAGGAGUGGCUGGG (ssRNA) [sc1 conserved element only]
binding result [4]: no binding

GAGCGGCUGCGGUGUGGAAGGAGUGGCUGGGUUGCGCACCUUGGCUUC (ssRNA) [sc1]
binding result [5]: binds | binding result [6]: no binding | binding result [7]: binds | binding result [8]: binds

GAGCGGCUGCGGUGUGGAAGGAGUGGCUGGGAAGCGCACCUUGGCUUC (ssRNA, [none]) [sc1 U49U50 to AA]
binding signal [9]: < 20 fold decrease

GAGCGGCUGCGGUGUGGAAGAAGUGGCUGGGUUGCGCACCUUGGCUUC (ssRNA, [none]) [sc1 G38A]
binding signal [9]: < 20 fold decrease

GAGCGGCUGCGGUGUGGAAGGAGUGGGUGGGUUGCGCACCUUGGCUUC (ssRNA, [none]) [sc1 C44G]
binding result [10]: binds

GAGCGGCUGCGGUGUGGCCGGAGUGGCUGGGUUGCGCACCUUGGCUUC (ssRNA, [none]) [sc1 A35A36 to CC]
binding result [11]: no binding

Reference: patent publication US20050130151, “Method and identification of downstream mrna ligands to fmrp and their role in fragile x syndrome and associated disorders” (Emory University, published 2005)
